The values that follow come from patent US20080085859A1, “Drug Promoting Ceramide Transport, Base Sequence for Producing the Drug, Method of Measuring Activity of Promoting Ceramide Release and Method of Measuring Activity of Promoting Intermembrane Ceramide Transfer” (JAPAN SCIENCE AND TECHNOLOGY AGENCY, priority 2003, published 2008).

The subject of assay [1] is LY-A2 cell. As to the kind of experiment: sensibility to MCD and lysenin (MTT). The class given is cell-based, Chinese hamster. How it is done:
100 thousand pieces of cells per each well of a 12-well culture dish were inoculated in 1 mL of F12/NBS culture medium and cultured at 33° C. overnight. After Cells existed on the culture dish was washed twice in 1 mL of serum-free F12 medium, 1 mL of 10 mM MCD/F12 or lysenin (25 ng/mL)/F12 was added. It should be noted that culture medium in which 1 mL of only serum-free F12 has been added was made control. After it has been incubated at 37° C. for one hour, it was washed twice in 1 mL of phosphate buffered saline (PBS). Subsequently, 1 mL of MTT (0.5 mg/mL)/F12 was added and incubated at 37° C. for one hour. The relative amount of the generated reduced form of MTT was measured by a method of reference literature written by Hanada et al (J. Biol. Chem. 273, 33787-33794, 1998).
The relevant gene was expressed in LY-A2 cell by making virus particle derived from retrovirus vector infect it prepared in the foregoing paragraph. Specifically, the relevant gene was expressed in LY-A2 cell by making virus particle derived from pLIB/hCERT. In the case where hCERT was expressed, the purified transformed strain was also separated by a ultradilution method, and this strain was named as LY-A2/hCERT. After it has been cultured for days, the sensitivity to MCD and lysenin was examined by the above-described method. […]

A short description of assay [2]: ceramide release promotion activity from membrane. The class given is biochemical. The conditions noted are these: 14C-ceramide in phosphatidylcholine/phosphatidylethanolamine membrane, 37° C. 30 minutes, 14C in supernatant; FIGS. 14, 16. As to the method:
Hereinafter, the standard method will be described in detail, however, even if the described conditions are changed, a method of detecting ceramide release promotion activity having means for separating releasing ceramide by a centrifugation principally belongs to the present invention. The lipid membrane containing ceramide was prepared so that it contains 12.5 nCi (225 pmol) per sample of [palmitoyl-1-^14C]N-palmitoyl-D-ethyro-sphigosine (hereinafter, may be referred to as ^14C-ceramide) on the basis of the mixed lipid consisting of phosphatidylcholine and phosphatidylethanolamine derived from egg yolk at the ratio of 4:1 and its concentration becomes 2.5 mg/mL. This lipid membrane is required at the rate of 20 μL per one sample of the activity measurement. […]
hCERT protein or its recombinant protein described above as a protein sample to be targeted (under the standard conditions, the amount of protein corresponding to 450 picomoles, which is 2-fold molar equivalent amount of ceramide contained in the donating membrane was used) were messed up to 30 μL using the buffer 2 [50 mM Hepes-NaOH buffer (pH7.4) to which 100 mM NaCl and 0.5 mM EDTA have been added]. […] The activity for promoting ceramide release with hCERT was calculated by measuring the radioactive activity of ^14C in the supernatant fraction using a liquid scintillation counter. […]

Assay [3] deals with LY-A2 cell. The experiment in a line: metabolism labeling of lipid using [14C] serine and [14C] choline. The class given is cell-based, Chinese hamster. The conditions noted are these: LY-A2/hCERT cell. How it is done: CHO-K1 cell, LY-A2 cell, and LY-A2/hCERT cell were inoculated at the cell density of 1.0×10^6 per culture dish having the 60-mm diameter, and cultured at 33° C. overnight. Subsequently, it was exchanged with […] of Nutridoma medium, after [^14C] serine (0.75 μCi) or [^14C] choline (1.0 μCi) have been added, in the case where [^14C] serine is added, it was cultured for 2 hours, and in the case where [^14C] choline is added, it was cultured at 33° C. for 5 hours. However, in the case where the influence on (1R, 3R) HPA-12 is analyzed, after it was pretreated at […] for 15 minutes in 1.5 mL of Nutridoma medium to which 1 μM of (1R,3R) HPA-12 has been added (in control experiment, dimethylsulfoxide used for dissolving a drug was added at the concentration corresponding to 0.01% of the final concentration), [^14C] serine was added, and cultured at 33° C. for 2 hours. After the cell was washed twice in 2 mL of cooled PBS, dissolved in 900 μL of sodium dodecyl sulfate (SDS), then, 800 μL and 20 μL of dissolved matter were used for determining lipid extraction and protein concentration. For the purpose of analyzing lipid labeled with [^14C] serine, the lipid was separated by TLC by making acetic methyl/n-propanol/chloroform/methanol/0.25% KCl (25:25:25 10:9, volume ratio) development solvent. The radioactive lipid separated on the plate was detected and analyzed by an image analyzer.

B1: hCERT protein: human CERT protein having an amino acid sequence of SEQ ID NO:1 (protein)
chain: MSDNQSWNSSGSEEDPETESGPPVERCGVLSKWTNYIHGWQDRWVVLKNNALSYYKSEDETEYGCRGSICLSKAVITPHDFDECRFDISVNDSVWYLRAQDPDHRQQWIDAIEQHKTESGYGSESSLRRHGSMVSLVSGASGYSATSTSSFKKGHSLREKLAEMETFRDILCRQVDTLQKYFDACADAVSKDELQRDKVVEDDEDDFPTTRSDGDFLHSTNGNKEKLFPHVTPKGINGIDFKGEAITFKATTAGILATLSHCIELMVKREDSWQKRLDKETEKKRRTEEAYKNAMTELKKKSHFGGPDYEEGPNSLINEEEFFDAVEAALDRQDKIEEQSQSEKVRLHWPTSLPSGDAFSSVGTHRFVQKVEEMVQNHMTYSLQDVGGDANWQLVVEEGEMKVYRREVEENGIVLDPLKATHAVKGVTGHEVCNYFWNVDVRNDWETTIENFHVVETLADNAIIIYQTHKRVWPASQRDVLYLSVIRKIPALTENDPETWIVCNFSVDHDSAPLNNRCVRAKINVAMICQTLVSPPEGNQEISRDNILCKITYVANVNPGGWAPASVLRAVAKREYPKFLKRFTSYVQEKTAGKPILF
modifications: HeLa cell
As to B1, the “MCD resistance and lysenin sensitivity” value in the assay with LY-A2 cell [1] (LY-A2 infected with virus particle derived from pLIB/hCERT, FIG. 2) is “significantly acquired MCD resistance and lysenin sensitivity”. Besides, the “sensitivity to MCD and lysenin” value in the assay on LY-A2 cell [1] (purified LY-A2/hCERT cell, FIG. 3(A)) is “approximately the same level as the sensitivity seen in the wild type CHO-K1 cell”. Also, the “activity for promoting ceramide release” value in assay [2] was “detected depending on the amount of hCERT and the length of incubating time”. Further, in the assay on LY-A2 cell [3] (radioactive choline, FIG. 4(B)), the PC synthesizing rate result is on record as “at the wild type level” and the SM biosynthesizing rate entry is “recovered to the wild type level”. In addition, the SM biosynthesis speed entry in the assay with LY-A2 cell [3] (radioactive serine, FIG. 4(A)) is “recovered to the wild type level”.
